{
  "source": "the supplement of paper PMC11865577",
  "data": [
    {"system": "TO-3-N3-2 (biotin conjugate)", "test": "pull-down binding Z-score (relative to library population); higher = stronger binding", "conditions": "RNA library: Library-2", "method_in_brief": "(§1)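 Streptavidin beads bearing 100 pmol of a biotin-conjugated small molecule were incubated for 60 min at 25 °C with 1 μg of heat-folded, Cy5- or Cy3-end-labelled RNA library in phosphate/NaCl/KCl buffer. Hot SDS eluted the RNA that stayed bound after three washes, and this RNA was hybridised for 20 h at 55.5 °C to a DNA barcode microarray. Binding was expressed as a Z-score against the library mean and standard deviation, after subtraction of a beads-only signal and trimmed averaging of barcoded replicate probes.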", "values": [
      {"sequence": "GCACCUGUUUGUGAC [hsa-mir-4718]", "pull-down binding Z-score": -0.276},
      {"sequence": "GCACUCUGUAGUUUGGGUACACAGUGC [hsa-mir-5011]", "pull-down binding Z-score": -0.259},
      {"sequence": "GCAGAAAUCACUCCAGGAGCAACUGA [hsa-mir-936]", "pull-down binding Z-score": 0.0585},
      {"sequence": "GCAGAGAAGACAGUGAGCUUGCCAGUUCUGGUUUCCAACACUUCCUUUCCUGCG [hsa-mir-3911]", "pull-down binding Z-score": 0.236},
      {"sequence": "GCAGAGCAGGACGCCGCUGCUGC [hsa-mir-8072]", "pull-down binding Z-score": 0.0817},
      {"sequence": "GCAGAUAGUGGUCCUCUCCGUGCUACCGC [hsa-mir-106b]", "pull-down binding Z-score": -0.0832},
      {"sequence": "GCAGAUUCUCUCUCUC [hsa-mir-4279]", "pull-down binding Z-score": -0.0368},
      {"sequence": "GCAGCACUGUGCUGGGGAUGUUGC [hsa-mir-1301]", "pull-down binding Z-score": 0.078},
      {"sequence": "GCAGCAGGCACCUGCUUCC [hsa-mir-6868]", "pull-down binding Z-score": 0.16},
      {"sequence": "GCAGCCAGUCCUGUCUCACCGC [hsa-mir-6812]", "pull-down binding Z-score": -0.105},
      {"sequence": "GCAGCCUUCUGCCUUUGGCUUUCUGAAGCGAGCUGA [hsa-mir-7158]", "pull-down binding Z-score": 0.292},
      {"sequence": "GCAGCCUUGC [hsa-mir-4298]", "pull-down binding Z-score": -0.244},
      {"sequence": "GCAGCUAGUAAUAUGAGCCCAGUUGC [hsa-mir-153-2]", "pull-down binding Z-score": -0.0986},
      {"sequence": "GCAGCUAGUAUUCUCACUCCAGUUGC [hsa-mir-153-1]", "pull-down binding Z-score": -0.655},
      {"sequence": "GCAGCUGGAAUUCAAGCCCUGCUGC [hsa-mir-6882]", "pull-down binding Z-score": -0.319}
    ]},
    {"system": "TO-N3-2 (biotin conjugate)", "test": "pull-down binding Z-score (relative to library population); higher = stronger binding", "conditions": "RNA library: Library-2", "method_in_brief": "as §1", "values": [
      {"sequence": "GAGGGGCUUACUGCCCUGUGGGGCUCUCUGGACCCAGUGCCAUGCUUCUC [hsa-mir-6728]", "pull-down binding Z-score": 1.23},
      {"sequence": "GAGGUCUUCCCAUGCUAAGAAGUCCUC [hsa-mir-2116]", "pull-down binding Z-score": -0.154},
      {"sequence": "GAGGUGGGAAGGCUGCCCCAAAUGGCCUCUAACAUCCCUUCCAGUCUCCUCCUC [hsa-mir-6127]", "pull-down binding Z-score": 0.919},
      {"sequence": "GAGGUUGCAGUGAGCCAAGAUCGUG [hsa-mir-4459]", "pull-down binding Z-score": 1.33},
      {"sequence": "GAGUACCUUCCAACACGAGCUCUC [hsa-mir-3664]", "pull-down binding Z-score": 1.06},
      {"sequence": "GAGUAUUUUAAUACUGGCAUACUC [hsa-mir-1263]", "pull-down binding Z-score": -0.98},
      {"sequence": "GAGUCAGAAAAACUAC [hsa-mir-601]", "pull-down binding Z-score": 0.271},
      {"sequence": "GAGUCCUAUUUAUUUUUAGGAUAUUAGGAA [hsa-mir-5692c-2]", "pull-down binding Z-score": -0.62},
      {"sequence": "GAGUGAAUC [hsa-mir-3610]", "pull-down binding Z-score": -0.552},
      {"sequence": "GAGUGAGGCCCAGUGGUCACCGCCGCCCUC [hsa-mir-4754]", "pull-down binding Z-score": 1.73},
      {"sequence": "GAGUGGUCGGGUCGACUGAACC [hsa-mir-4726]", "pull-down binding Z-score": 1.34},
      {"sequence": "GAGUGUAAUUACGUACAUGCAGUAGCUC [hsa-mir-618]", "pull-down binding Z-score": 0.152},
      {"sequence": "GAGUUGCUGAGUGGGUUGAUCUC [hsa-mir-6764]", "pull-down binding Z-score": 0.652},
      {"sequence": "GAGUUUGGAAUUAAAAUCAAAACC [hsa-mir-181a-1]", "pull-down binding Z-score": 0.419},
      {"sequence": "GAGUUUGGAGUCGGUGGGUGGAGCCAAACUG [hsa-mir-6860]", "pull-down binding Z-score": 1.52},
      {"sequence": "GAGUUUGGGAUUUGAAAAAACC [hsa-mir-181a-2]", "pull-down binding Z-score": 0.793},
      {"sequence": "GAGUUUGGGCAGCUCAGGCAAACC [hsa-mir-181c]", "pull-down binding Z-score": 1.12},
      {"sequence": "GAUAUGCCAUUAUGUGGGUCAUGAGGUGGUGA [hsa-mir-6864]", "pull-down binding Z-score": 1.54},
      {"sequence": "GAUCCAGCCCAGGCUGGUUCCGCUGAC [hsa-mir-4522]", "pull-down binding Z-score": 1.51},
      {"sequence": "GAUCCGGGAACCCACAGCCCCGUUC [hsa-mir-6783]", "pull-down binding Z-score": 1.08},
      {"sequence": "GAUCCUUUGUUCUGGAUC [hsa-mir-7856]", "pull-down binding Z-score": -0.63},
      {"sequence": "GAUGAAGAUUAAUCCCUAAUCCCCAACA [hsa-mir-6757]", "pull-down binding Z-score": 0.739},
      {"sequence": "GAUGCUGUAUAUCUGAAAGGUAC [hsa-mir-101-2]", "pull-down binding Z-score": 0.383},
      {"sequence": "GAUGCUGUCUAUUCUAAAGGUAC [hsa-mir-101-1]", "pull-down binding Z-score": 0.0666},
      {"sequence": "GAUGGAGGAAUCACAUGAAUUCAUC [hsa-mir-2115]", "pull-down binding Z-score": -0.351},
      {"sequence": "GAUGGAUUCUUAUGCUCCAUC [hsa-mir-136]", "pull-down binding Z-score": -0.9},
      {"sequence": "GAUGGGAUUAGAAACCAUAUGUCUCAUC [hsa-mir-3617]", "pull-down binding Z-score": -0.438},
      {"sequence": "GAUGUAUCCAAGUACCCUGUGUUAUUUGGCAAUAAAUACAUC [hsa-mir-1298]", "pull-down binding Z-score": -0.35},
      {"sequence": "GAUGUUUCUGCCAGUUUAGCGUC [hsa-mir-505]", "pull-down binding Z-score": 0.324},
      {"sequence": "GAUUAUUGUAAGCAGGAUCCAUUCAAUAAUC [hsa-mir-5188]", "pull-down binding Z-score": -0.703},
      {"sequence": "GAUUCGCUUUACUUAUGACGAAUC [hsa-mir-382]", "pull-down binding Z-score": -0.716},
      {"sequence": "GAUUCUGAUUCAGGGACCAAGAUUC [hsa-mir-544a]", "pull-down binding Z-score": 0.414},
      {"sequence": "GAUUCUUGAGGCUUGGAAGAGUAAGGAUC [hsa-mir-6866]", "pull-down binding Z-score": 1.07},
      {"sequence": "GAUUGAAGUUGAAUAGUGC [hsa-mir-3161]", "pull-down binding Z-score": 0.0514},
      {"sequence": "GAUUGCUAAUAGUACCAAUC [hsa-mir-34c]", "pull-down binding Z-score": -0.636},
      {"sequence": "GAUUGGUCUGUGGUCCUCUC [hsa-mir-3615]", "pull-down binding Z-score": 0.498},
      {"sequence": "GAUUGGUUAGCCUAAGACUUGUUCUGAUCCAAUC [hsa-mir-5701-1_5701-2_5701-3]", "pull-down binding Z-score": 0.061},
      {"sequence": "GAUUUCUAUGAGAACAUC [hsa-mir-3675]", "pull-down binding Z-score": -0.95},
      {"sequence": "GAUUUUUUAGAUUCUAAAGAAAC [hsa-mir-1255a]", "pull-down binding Z-score": -1.27},
      {"sequence": "GCAAGGCUGUAGUGUGCACAGCCUUGA [hsa-mir-4452]", "pull-down binding Z-score": 0.583},
      {"sequence": "GCAAGGUUGUUGGUGAUAUGGCUUCCUCUC [hsa-mir-4685]", "pull-down binding Z-score": 0.538},
      {"sequence": "GCAAUCAGGACUGGGUCAUUC [hsa-mir-6873]", "pull-down binding Z-score": 0.291},
      {"sequence": "GCACCUGUUUGUGAC [hsa-mir-4718]", "pull-down binding Z-score": -0.201},
      {"sequence": "GCACUCUGUAGUUUGGGUACACAGUGC [hsa-mir-5011]", "pull-down binding Z-score": -0.478},
      {"sequence": "GCAGAAAUCACUCCAGGAGCAACUGA [hsa-mir-936]", "pull-down binding Z-score": 0.712},
      {"sequence": "GCAGAGAAGACAGUGAGCUUGCCAGUUCUGGUUUCCAACACUUCCUUUCCUGCG [hsa-mir-3911]", "pull-down binding Z-score": 1.3},
      {"sequence": "GCAGAGCAGGACGCCGCUGCUGC [hsa-mir-8072]", "pull-down binding Z-score": 1.65},
      {"sequence": "GCAGAUAGUGGUCCUCUCCGUGCUACCGC [hsa-mir-106b]", "pull-down binding Z-score": 1.16},
      {"sequence": "GCAGAUUCUCUCUCUC [hsa-mir-4279]", "pull-down binding Z-score": 0.316},
      {"sequence": "GCAGCACUGUGCUGGGGAUGUUGC [hsa-mir-1301]", "pull-down binding Z-score": 0.858},
      {"sequence": "GCAGCAGGCACCUGCUUCC [hsa-mir-6868]", "pull-down binding Z-score": 1.49},
      {"sequence": "GCAGCCAGUCCUGUCUCACCGC [hsa-mir-6812]", "pull-down binding Z-score": 1.08},
      {"sequence": "GCAGCCUUCUGCCUUUGGCUUUCUGAAGCGAGCUGA [hsa-mir-7158]", "pull-down binding Z-score": 1.09},
      {"sequence": "GCAGCCUUGC [hsa-mir-4298]", "pull-down binding Z-score": 0.0238},
      {"sequence": "GCAGCUAGUAAUAUGAGCCCAGUUGC [hsa-mir-153-2]", "pull-down binding Z-score": 0.128},
      {"sequence": "GCAGCUAGUAUUCUCACUCCAGUUGC [hsa-mir-153-1]", "pull-down binding Z-score": 0.592},
      {"sequence": "GCAGCUGGAAUUCAAGCCCUGCUGC [hsa-mir-6882]", "pull-down binding Z-score": 0.0816}
    ]}
  ]
}
